B1: CLINT1 (parent)
chain: VVTSAREHIYDLRSLENYHFVDEH
B2: GNB5 (parent)
chain: YYPSGDAFASGSDDATCRLYDLRA

Variants of: B1
Test: protein stability index of a GFP-peptide fusion (GPS, HEK-293T) (PSI 1-6); higher = more stable
Settings: c terminus: a fixed tail appended
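Further: lentivirally expressed fusions sorted by FACS into six bins by GFP to DsRed ratio, PSI derived from sequencing read proportions per bin multiplied by bin number.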

With VVTSAREHIYDLRSLENYHFVDWH as the variant, how does the protein stability index read?
Its protein stability index is 3.37.

For VVTSAREHIYDLRSLENYHFVDYH, which protein stability index is on record?
The protein stability index was 1.26.

With VVTSAREHIYDLRSLENYHFVDEV as the variant, how does the protein stability index read?
The protein stability index was 2.38.

Which protein stability index does the source give for VVTSAREHIYDLRSLENYHFVDEM here?
Its protein stability index is 2.92.

Which protein stability index does the source give for VVTSAREHIYDLRSLENYHFVDEA here?
The protein stability index was 2.85.

For VVTSAREHIYDLRSLENYHFVDEN, which protein stability index is on record?
The protein stability index was 3.5.

For VVTSAREHIYDLRSLENYHFVDEC, which protein stability index is on record?
Its protein stability index is 2.3.

For VVTSAREHIYDLRSLENYHFVDEQ, which protein stability index is on record?
The protein stability index was 3.39.

With VVTSAREHIYDLRSLENYHFVDEI as the variant, how does the protein stability index read?
Its protein stability index is 2.35.

Which protein stability index does the source give for VVTSAREHIYDLRSLENYHFVDES here?
The protein stability index was 3.44.

Which protein stability index does the source give for VVTSAREHIYDLRSLENYHFVDEY here?
The protein stability index was 2.32.

For VVTSAREHIYDLRSLENYHFVDEG, which protein stability index is on record?
The protein stability index was 3.55.

Which protein stability index does the source give for VVTSAREHIYDLRSLENYHFVDEL here?
Its protein stability index is 2.22.

For VVTSAREHIYDLRSLENYHFVDEK, which protein stability index is on record?
Its protein stability index is 3.21.

For VVTSAREHIYDLRSLENYHFVDET, which protein stability index is on record?
Its protein stability index is 3.11.

Which protein stability index does the source give for VVTSAREHIYDLRSLENYHFVDEE here?
Its protein stability index is 4.04.

With VVTSAREHIYDLRSLENYHFVDEP as the variant, how does the protein stability index read?
The protein stability index was 2.79.

With VVTSAREHIYDLRSLENYHFVDER as the variant, how does the protein stability index read?
The protein stability index was 2.78.

Which protein stability index does the source give for VVTSAREHIYDLRSLENYHFVDED here?
The protein stability index was 4.13.

Which protein stability index does the source give for VVTSAREHIYDLRSLENYHFVDEF here?
Its protein stability index is 2.58.

Which protein stability index does the source give for VVTSAREHIYDLRSLENYHFVDEW here?
The protein stability index was 2.98.

Variants of: B2
Test: as above
Settings: c terminus: a fixed tail appended

For YMPSGDAFASGSDDATCRLYDLRA, which protein stability index is on record?
The protein stability index was 2.48.

Which protein stability index does the source give for YSPSGDAFASGSDDATCRLYDLRA here?
The protein stability index was 2.18.

With YQPSGDAFASGSDDATCRLYDLRA as the variant, how does the protein stability index read?
The protein stability index was 2.4.

With YTPSGDAFASGSDDATCRLYDLRA as the variant, how does the protein stability index read?
The protein stability index was 1.96.

Which protein stability index does the source give for YLPSGDAFASGSDDATCRLYDLRA here?
Its protein stability index is 3.34.

With YPPSGDAFASGSDDATCRLYDLRA as the variant, how does the protein stability index read?
Its protein stability index is 3.16.

For YFPSGDAFASGSDDATCRLYDLRA, which protein stability index is on record?
The protein stability index was 2.03.

For YGPSGDAFASGSDDATCRLYDLRA, which protein stability index is on record?
The protein stability index was 2.26.

With YDPSGDAFASGSDDATCRLYDLRA as the variant, how does the protein stability index read?
Its protein stability index is 4.29.

For YCPSGDAFASGSDDATCRLYDLRA, which protein stability index is on record?
Its protein stability index is 2.09.

Which protein stability index does the source give for YHPSGDAFASGSDDATCRLYDLRA here?
The protein stability index was 2.69.

With YIPSGDAFASGSDDATCRLYDLRA as the variant, how does the protein stability index read?
The protein stability index was 2.25.

For YKPSGDAFASGSDDATCRLYDLRA, which protein stability index is on record?
Its protein stability index is 4.08.

For YEPSGDAFASGSDDATCRLYDLRA, which protein stability index is on record?
Its protein stability index is 4.83.

For YNPSGDAFASGSDDATCRLYDLRA, which protein stability index is on record?
Its protein stability index is 3.55.

Which protein stability index does the source give for YAPSGDAFASGSDDATCRLYDLRA here?
Its protein stability index is 1.79.

For YRPSGDAFASGSDDATCRLYDLRA, which protein stability index is on record?
Its protein stability index is 3.66.

With YWPSGDAFASGSDDATCRLYDLRA as the variant, how does the protein stability index read?
Its protein stability index is 1.75.

With YVPSGDAFASGSDDATCRLYDLRA as the variant, how does the protein stability index read?
The protein stability index was 2.02.

Which protein stability index does the source give for YYPSGNAFASGSDDATCRLYDLRA here?
Its protein stability index is 2.11.

With YYPSGCAFASGSDDATCRLYDLRA as the variant, how does the protein stability index read?
The protein stability index was 2.03.

For YYPSGGAFASGSDDATCRLYDLRA, which protein stability index is on record?
The protein stability index was 2.72.

With YYPSGSAFASGSDDATCRLYDLRA as the variant, how does the protein stability index read?
Its protein stability index is 2.52.

For YYPSGVAFASGSDDATCRLYDLRA, which protein stability index is on record?
Its protein stability index is 2.35.

Which protein stability index does the source give for YYPSGHAFASGSDDATCRLYDLRA here?
The protein stability index was 2.26.

Which protein stability index does the source give for YYPSGLAFASGSDDATCRLYDLRA here?
The protein stability index was 2.06.

For YYPSGQAFASGSDDATCRLYDLRA, which protein stability index is on record?
Its protein stability index is 1.83.

Which protein stability index does the source give for YYPSGFAFASGSDDATCRLYDLRA here?
Its protein stability index is 2.14.

Which protein stability index does the source give for YYPSGYAFASGSDDATCRLYDLRA here?
The protein stability index was 1.97.

With YYPSGPAFASGSDDATCRLYDLRA as the variant, how does the protein stability index read?
The protein stability index was 2.81.

For YYPSGRAFASGSDDATCRLYDLRA, which protein stability index is on record?
The protein stability index was 1.91.

Which protein stability index does the source give for YYPSGWAFASGSDDATCRLYDLRA here?
The protein stability index was 1.52.

Which protein stability index does the source give for YYPSGMAFASGSDDATCRLYDLRA here?
The protein stability index was 1.92.

Which protein stability index does the source give for YYPSGIAFASGSDDATCRLYDLRA here?
The protein stability index was 1.89.

For YYPSGKAFASGSDDATCRLYDLRA, which protein stability index is on record?
The protein stability index was 1.64.

With YYPSGAAFASGSDDATCRLYDLRA as the variant, how does the protein stability index read?
Its protein stability index is 2.31.

Which protein stability index does the source give for YYPSGTAFASGSDDATCRLYDLRA here?
The protein stability index was 2.13.

With YYPSGEAFASGSDDATCRLYDLRA as the variant, how does the protein stability index read?
Its protein stability index is 2.43.

Which protein stability index does the source give for YYYSGDAFASGSDDATCRLYDLRA here?
The protein stability index was 2.

For YYESGDAFASGSDDATCRLYDLRA, which protein stability index is on record?
The protein stability index was 4.01.

With YYNSGDAFASGSDDATCRLYDLRA as the variant, how does the protein stability index read?
Its protein stability index is 3.36.

For YYSSGDAFASGSDDATCRLYDLRA, which protein stability index is on record?
The protein stability index was 3.27.

For YYKSGDAFASGSDDATCRLYDLRA, which protein stability index is on record?
The protein stability index was 2.64.

For YYDSGDAFASGSDDATCRLYDLRA, which protein stability index is on record?
The protein stability index was 3.46.

Which protein stability index does the source give for YYISGDAFASGSDDATCRLYDLRA here?
Its protein stability index is 2.

For YYVSGDAFASGSDDATCRLYDLRA, which protein stability index is on record?
The protein stability index was 2.31.

With YYRSGDAFASGSDDATCRLYDLRA as the variant, how does the protein stability index read?
Its protein stability index is 2.88.

With YYGSGDAFASGSDDATCRLYDLRA as the variant, how does the protein stability index read?
Its protein stability index is 3.33.

Which protein stability index does the source give for YYWSGDAFASGSDDATCRLYDLRA here?
Its protein stability index is 2.32.

Which protein stability index does the source give for YYTSGDAFASGSDDATCRLYDLRA here?
The protein stability index was 3.52.

With YYQSGDAFASGSDDATCRLYDLRA as the variant, how does the protein stability index read?
The protein stability index was 3.21.

Which protein stability index does the source give for YYASGDAFASGSDDATCRLYDLRA here?
Its protein stability index is 2.55.

With YYFSGDAFASGSDDATCRLYDLRA as the variant, how does the protein stability index read?
Its protein stability index is 2.5.

With YYCSGDAFASGSDDATCRLYDLRA as the variant, how does the protein stability index read?
Its protein stability index is 2.75.

For YYMSGDAFASGSDDATCRLYDLRA, which protein stability index is on record?
The protein stability index was 2.99.

For YYHSGDAFASGSDDATCRLYDLRA, which protein stability index is on record?
The protein stability index was 3.04.

With YYLSGDAFASGSDDATCRLYDLRA as the variant, how does the protein stability index read?
The protein stability index was 2.31.

With YYPSGDAFGSGSDDATCRLYDLRA as the variant, how does the protein stability index read?
The protein stability index was 2.41.

For YYPSGDAFNSGSDDATCRLYDLRA, which protein stability index is on record?
Its protein stability index is 2.65.

For YYPSGDAFKSGSDDATCRLYDLRA, which protein stability index is on record?
Its protein stability index is 2.22.

Which protein stability index does the source give for YYPSGDAFRSGSDDATCRLYDLRA here?
The protein stability index was 2.17.

For YYPSGDAFLSGSDDATCRLYDLRA, which protein stability index is on record?
Its protein stability index is 1.99.

Which protein stability index does the source give for YYPSGDAFPSGSDDATCRLYDLRA here?
Its protein stability index is 3.06.

With YYPSGDAFFSGSDDATCRLYDLRA as the variant, how does the protein stability index read?
The protein stability index was 1.9.

With YYPSGDAFHSGSDDATCRLYDLRA as the variant, how does the protein stability index read?
The protein stability index was 2.15.

Which protein stability index does the source give for YYPSGDAFCSGSDDATCRLYDLRA here?
Its protein stability index is 2.36.

Which protein stability index does the source give for YYPSGDAFDSGSDDATCRLYDLRA here?
Its protein stability index is 3.6.

With YYPSGDAFISGSDDATCRLYDLRA as the variant, how does the protein stability index read?
The protein stability index was 2.12.

With YYPSGDAFESGSDDATCRLYDLRA as the variant, how does the protein stability index read?
Its protein stability index is 3.17.

Which protein stability index does the source give for YYPSGDAFQSGSDDATCRLYDLRA here?
The protein stability index was 2.36.

Which protein stability index does the source give for YYPSGDAFMSGSDDATCRLYDLRA here?
The protein stability index was 2.45.

Which protein stability index does the source give for YYPSGDAFSSGSDDATCRLYDLRA here?
Its protein stability index is 2.56.

For YYPSGDAKASGSDDATCRLYDLRA, which protein stability index is on record?
The protein stability index was 4.19.
